Data taken from patent publication US20200339680A1.

Tests used:
human TMEM106B (human) [1] = molecular target: human TMEM106B (human) (UniProt Q9NUM4); assay: FACS A549 10 ug/ml
human TMEM106B (human) [2] = molecular target: human TMEM106B (human) (UniProt Q9NUM4); assay: FACS HEK+huTMEM 0.1 ug/ml
mouse TMEM106B (mouse) [3] = molecular target: mouse TMEM106B (mouse) (UniProt Q80X71); assay: FACS, transfected HEK293
human TMEM106B (human) [4] = molecular target: human TMEM106B (human) (UniProt Q9NUM4); assay: FACS, transfected HEK293
mouse TMEM106B (mouse) [5] = molecular target: mouse TMEM106B (mouse) (UniProt Q80X71); assay: FACS Neuro2a
human TMEM106B (human) [6] = molecular target: human TMEM106B (human) (UniProt Q9NUM4); assay: FACS HEK+huTMEM 1.0 ug/ml
human TMEM106B (human) [7] = molecular target: human TMEM106B (human) (UniProt Q9NUM4); assay: FACS HEK+huTMEM 0.1 ug/ml (2nd column so headed)
human TMEM106B (human) [8] = molecular target: human TMEM106B (human) (UniProt Q9NUM4); assay: FACS A549
human TMEM106B (human) [9] = molecular target: human TMEM106B (human) (UniProt Q9NUM4); assay: FACS HeLa
human TMEM106B (human) [10] = molecular target: human TMEM106B (human) (UniProt Q9NUM4); assay: FACS, supernatant, hu-transfected HEK293
human TMEM106B (human) [11] = molecular target: human TMEM106B (human) (UniProt Q9NUM4); assay: FACS HEK+huTMEM 10 ug/ml
human TMEM106B (human) [12] = molecular target: human TMEM106B (human) (UniProt Q9NUM4); assay: FACS U251
human TMEM106B (human) [13] = molecular target: human TMEM106B (human) (UniProt Q9NUM4); assay: FACS A549 1 ug/ml

- MFI (human TMEM106B (human) [1]): 443 MFI
- MFI (human TMEM106B (human) [2]): 304 MFI
- fold over parental HEK293 (mouse TMEM106B (mouse) [3]): 1.97 fold
- fold over parental HEK293 (human TMEM106B (human) [4]): 1.13 fold
- MFI (mouse TMEM106B (mouse) [5]): 325 MFI
- MFI (human TMEM106B (human) [6]): 415 MFI
- MFI (human TMEM106B (human) [7]): 282 MFI
- MFI (human TMEM106B (human) [8]): 916 MFI
- MFI (human TMEM106B (human) [9]): 323 MFI
- fold over negative controls (human TMEM106B (human) [10]): > 2 fold
- MFI (human TMEM106B (human) [11]): 846 MFI
- MFI (human TMEM106B (human) [12]): 349 MFI
- MFI (human TMEM106B (human) [13]): 373 MFI
B1: TM-4 (antibody, V domains shown)
VH: EVQVQQSGPVLVKPGASVKMSCKASGYTFTDYYMNWVKQSHGKNLEWIGVINPYNGGTSYHQKFKGKATLTVDKSSSTAYMELNSLTSEDSAVYYCARAATVVAGFDYWGQGTTLTVSS
VL: QAVVTQESALTTSPGETVTLTCRSSTGAVTTSNYANWVQEKPDHLFTGLIGGTNNRAPGVPARFSGSLIGDKAALTITGAQTEDEAIYFCVLWYSNHLVFGGGTKLTVL
